Measured values as given in patent US20160017025A1 (RAMOT AT TEL AVIV UNIVERSITY, published 2016).
Ends that are not written are not given here.

How the values were obtained:
[1] = target: T1, APP MAP peptide WT (wild type = ISEVKMDA x8), APP aa 666-673 (also: multiple antigenic peptide, 8 copies, core not described); assay: BIAcore SPR; reference BBS1
T1 construct: Eight copies of the octapeptide as a multiple antigenic peptide; the branching core is not described; also called WT peptide
T1 peptide: ISEVKMDA
Experimental: (§1) The affinity of new MAbs was assessed by BIAcore. Protein G was immobilized on the CM5 chip as capturing molecule for the different mAbs. Each mAb (ligand) was bound separately to Protein G, and different APP MAP peptides were added separately to the liquid phase (analytes) at different concentrations to test the affinity of the mAb to each peptide. Each mAb was tested for its affinity to the different APP MAP peptides for aa 666-673 WT (wild type=[…], SEQ ID NO:18), IP (immunizing peptide=[…], SEQ ID NO:15), and SW ([…], SEQ ID NO:17). The chip was regenerated by HCl after each cycle of mAb-peptide.

[2] = target: T1, APP MAP peptide WT (wild type = …); assay: BIAcore SPR; mAb captured on Protein G on CM5 chip, MAP peptide as analyte
Experimental: as §1

[3] = target: T2, APP MAP peptide SW (double Swedish mutation = ISEVNLDA x8) (also: multiple antigenic peptide, 8 copies, core not described); assay: as above
T2 construct: Eight copies as a MAP; the core is not described
T2 peptide: ISEVNLDA
Experimental: as §1

[4] = target: T3, APP MAP peptide IP (immunizing peptide = ISEVKLDA x8), half-Swedish mutation (also: multiple antigenic peptide, 8 copies, core not described); assay: as above
T3 construct: Eight copies as a MAP; the core is not described; also called MAP1-IP
T3 peptide: ISEVKLDA
Experimental: as §1

B1: F5.87 mAb (antibody, mouse IgG1, kappa, V domains shown)
VH: EVKLEESGGGLVQPGGSMKLSCAASGFTFSNAWMDWVRQSPEKGLEWVAEIRSKANNHATYYGESVKGRFTISRDDSKSSVYLQMNSLRAEDTGIYYCTATVRGGYWGQGTTLTVSS
VL: DIKMTQSPSSMYASLGERVTITCKASQDINSYLSWFQQKPGKSPKTLIYRANRLVDGVPSRFSGSGSGQDYSLTISSLEYEDMGIYYCLQYDEYPYTFGGGTKLEIKR
notes: Mouse hybridoma IgG1
[1]
  fold improvement in affinity over BBS1: 1000 fold
[2]
  Kd: 3.3 nM
[3]
  Kd: 1.1 nM
[4]
  Kd: 1.2 nM

B2: F5.100 (BBS3) mAb (antibody, mouse IgG1, kappa, V domains shown)
VH: EVQLQQSGPELVKPGASVKISCKASGYTFTDYNMHWVKQSHGKRLEWIGYIYPHNGGTGYNQRFKSKATLTVDKSSSTAYMELRSLTSEDSAVYYCARPGTEAYWGQGTLVTVSA
VL: DIVMTQSQKFMSTSVGDRVSVTCKASQNVGTNVAWYQQKPGQSPKPLIYSASYRYSGVPDRFTGSGSGTDFTLTISNVQSEDLAEYFCQQFNSYPLTFGAGTKLELKR
notes: Mouse hybridoma IgG1; The mature N-termini were found as EVQLQ (H chain; D = residue 21); also called F5.100 mAb; murine BBS3 mAb
[1]
  fold improvement in affinity over BBS1: 1000 fold
[2]
  Kd: 1.5 nM
[3]
  Kd: 8.8 nM
[4]
  Kd: 3.8 nM
